Results on four molecules are retold here after publication PMC5618490, “Arabidopsis E3 Ubiquitin Ligases PUB22 and PUB23 Negatively Regulate Drought Tolerance by Targeting ABA Receptor PYL9 for Degradation” (International Journal of Molecular Sciences, 2017).

Assay [1] has as its target T1, MBP-PUB23 (Arabidopsis thaliana, UniProt Q84TG3 1-411).
T1 construct: PUB23, plant U-box E3 ubiquitin ligase, Arabidopsis thaliana; Kept on the amylose resin for the pull-down; source: E. coli BL21 (DE3), purified (amylose resin); not shown: MBP, N-terminal, kept
T1 sequence (looked up): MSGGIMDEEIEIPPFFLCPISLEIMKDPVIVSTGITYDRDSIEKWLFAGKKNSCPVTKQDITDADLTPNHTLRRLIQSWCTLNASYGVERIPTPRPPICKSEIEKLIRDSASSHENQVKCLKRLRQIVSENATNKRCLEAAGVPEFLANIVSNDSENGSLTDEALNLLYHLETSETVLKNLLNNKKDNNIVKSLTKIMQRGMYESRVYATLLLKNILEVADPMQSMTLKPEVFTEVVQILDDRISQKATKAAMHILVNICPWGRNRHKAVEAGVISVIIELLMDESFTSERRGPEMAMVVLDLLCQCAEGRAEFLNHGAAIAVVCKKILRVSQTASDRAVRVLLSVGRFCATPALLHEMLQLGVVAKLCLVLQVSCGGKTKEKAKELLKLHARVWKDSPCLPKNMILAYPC
The assay is described as follows: pull-down; MBP-PUBs or MBP on amylose resin incubated with GST-PYLs for 1 h at room temperature in 20 mM Tris-HCl pH 7.2, 10 mM MgCl2, 2 mM DTT; washed five times; blot with anti-GST antibody. To be noted: both partners purified.

Assay [2] deals with T2, MBP-PUB22 (Arabidopsis thaliana, UniProt Q9SVC6 1-435).
T2 construct: PUB22, plant U-box E3 ubiquitin ligase, Arabidopsis thaliana; Kept on the amylose resin for the pull-down; source: E. coli BL21 (DE3), purified (amylose resin); not shown: MBP, N-terminal, kept
T2 sequence (looked up): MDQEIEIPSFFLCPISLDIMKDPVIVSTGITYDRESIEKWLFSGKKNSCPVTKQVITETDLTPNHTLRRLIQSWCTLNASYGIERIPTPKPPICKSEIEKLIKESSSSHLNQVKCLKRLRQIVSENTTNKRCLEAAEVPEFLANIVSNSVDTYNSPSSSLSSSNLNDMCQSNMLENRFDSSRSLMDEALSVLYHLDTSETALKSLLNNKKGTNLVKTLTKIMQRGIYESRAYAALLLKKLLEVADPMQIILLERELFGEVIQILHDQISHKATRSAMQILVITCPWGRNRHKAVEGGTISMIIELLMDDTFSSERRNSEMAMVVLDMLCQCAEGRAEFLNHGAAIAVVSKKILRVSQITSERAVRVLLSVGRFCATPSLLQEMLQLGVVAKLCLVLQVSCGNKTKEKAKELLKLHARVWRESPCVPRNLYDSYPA
Described as above. The conditions noted are these: both partners purified.

B1: GST-PYL9 (receptor, Arabidopsis thaliana, UniProt Q84MC7 1-187, looked up)
chain: MMDGVEGGTAMYGGLETVQYVRTHHQHLCRENQCTSALVKHIKAPLHLVWSLVRRFDQPQKYKPFVSRCTVIGDPEIGSLREVNVKSGLPATTSTERLELLDDEEHILGIKIIGGDHRLKNYSSILTVHPEIIEGRAGTMVIESFVVDVPQGNTKDETCYFVEALIRCNLKSLADVSERLASQDITQ
notes: PYL9, PYR/PYL/RCAR family ABA receptor, Arabidopsis thaliana; cDNA fused to the C terminus of the GST tag in pCold-GST between EcoRI and SalI; source: E. coli, purified (Glutathione Sepharose 4B, eluted with reduced glutathione); not shown: GST, N-terminal, kept
On to B1, for which the binding result in assay [1] is “binds”.

B2: GST-PYL5 (receptor, Arabidopsis thaliana, UniProt Q9FLB1 1-203, looked up)
chain: MRSPVQLQHGSDATNGFHTLQPHDQTDGPIKRVCLTRGMHVPEHVAMHHTHDVGPDQCCSSVVQMIHAPPESVWALVRRFDNPKVYKNFIRQCRIVQGDGLHVGDLREVMVVSGLPAVSSTERLEILDEERHVISFSVVGGDHRLKNYRSVTTLHASDDEGTVVVESYIVDVPPGNTEEETLSFVDTIVRCNLQSLARSTNRQ
notes: PYL5, PYR/PYL/RCAR family ABA receptor, Arabidopsis thaliana; cDNA fused to the C terminus of the GST tag in pCold-GST; source: E. coli DE3 cells, purified (Glutathione Sepharose 4B); not shown: GST, N-terminal, kept
Consider B2, for which the binding result in assay [2] is listed as “binds”.

B3: GST-PYL8 (receptor, Arabidopsis thaliana, UniProt Q9FGM1 1-188, looked up)
chain: MEANGIENLTNPNQEREFIRRHHKHELVDNQCSSTLVKHINAPVHIVWSLVRRFDQPQKYKPFISRCVVKGNMEIGTVREVDVKSGLPATRSTERLELLDDNEHILSIRIVGGDHRLKNYSSIISLHPETIEGRIGTLVIESFVVDVPEGNTKDETCYFVEALIKCNLKSLADISERLAVQDTTESRV
notes: PYL8, PYR/PYL/RCAR family ABA receptor, Arabidopsis thaliana; cDNA fused to the C terminus of the GST tag in pCold-GST; source: E. coli DE3 cells, purified (Glutathione Sepharose 4B); not shown: GST, N-terminal, kept
For the molecule B3, the binding result in assay [2] was “binds”.

B4: GST-PYL7 (receptor, Arabidopsis thaliana, UniProt Q1ECF1 1-211, looked up)
chain: MEMIGGDDTDTEMYGALVTAQSLRLRHLHHCRENQCTSVLVKYIQAPVHLVWSLVRRFDQPQKYKPFISRCTVNGDPEIGCLREVNVKSGLPATTSTERLEQLDDEEHILGINIIGGDHRLKNYSSILTVHPEMIDGRSGTMVMESFVVDVPQGNTKDDTCYFVESLIKCNLKSLACVSERLAAQDITNSIATFCNASNGYREKNHTETNL
notes: PYL7, PYR/PYL/RCAR family ABA receptor, Arabidopsis thaliana; cDNA fused to the C terminus of the GST tag in pCold-GST; source: E. coli DE3 cells, purified (Glutathione Sepharose 4B); not shown: GST, N-terminal, kept
On to B4, for which, in assay [2], the binding result was “binds”.
